# Paper doi:10.1101/2022.10.12.511839 (bioRxiv, 2022)
# T1: human Scribble PDZ3 domain (1005-1094) (human, UniProt Q14160 1005-1094)
# T1 sequence (looked up): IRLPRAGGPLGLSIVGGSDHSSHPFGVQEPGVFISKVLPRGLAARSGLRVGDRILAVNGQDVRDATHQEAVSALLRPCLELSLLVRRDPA
# Target: T1, human Scribble PDZ3 domain (1005-1094)
# Assay: ITC
row,Binder,binding result
1,RTRQRNETQV [HPV51 E6 C-terminal PBM 10-mer peptide (RTRQRNETQV)],binds
2,TSRQATESTV [HPV66 E6 C-terminal PBM 10-mer peptide (TSRQATESTV)],binds
3,RRRIRRETQV [HPV70 E6 C-terminal PBM 10-mer peptide (RRRIRRETQV)],binds
4,RLQRRRETQV [HPV18 E6 C-terminal PBM 10-mer peptide (RLQRRRETQV)],binds
5,WRSRRRETAL [HPV33 E6 C-terminal PBM 10-mer peptide (WRSRRRETAL)],binds
6,WRRPRTETQV [HPV31 E6 C-terminal PBM 10-mer peptide (WRRPRTETQV)],binds

# Target: human Scribble PDZ1 domain (728-815) (human, UniProt Q14160 728-815)
# Assay: ITC
# human Scribble PDZ1 domain (728-815), sequence (Q14160 728-815): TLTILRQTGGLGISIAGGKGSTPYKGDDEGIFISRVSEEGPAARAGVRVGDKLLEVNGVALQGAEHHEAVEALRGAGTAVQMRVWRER
Binder,Kd,binding result
SSRTRRETQL [HPV16 E6 C-terminal PBM 10-mer peptide (SSRTRRETQL)],9.4 µM,–
RTRQRNETQV [HPV51 E6 C-terminal PBM 10-mer peptide (RTRQRNETQV)],–,binds
TSRQATESTV [HPV66 E6 C-terminal PBM 10-mer peptide (TSRQATESTV)],–,binds
RRRIRRETQV [HPV70 E6 C-terminal PBM 10-mer peptide (RRRIRRETQV)],–,binds
WRSRRRETAL [HPV33 E6 C-terminal PBM 10-mer peptide (WRSRRRETAL)],–,binds
WRRPRTETQV [HPV31 E6 C-terminal PBM 10-mer peptide (WRRPRTETQV)],–,binds
